Biological target: T1, microtubules (polymerized porcine tubulin) (porcine, UniProt P02550 1-451; P02554 1-445)
T1 construct: alpha-tubulin of porcine tubulin; beta-tubulin of porcine tubulin; Polymer of alpha/beta-tubulin dimers; 14-protofilament MTs were selected for cryo-EM; The species is stated only for the co-sedimentation assay; also called MT; MTs; source: porcine tubulin, polymerized (stabilised with 10 uM paclitaxel for co-sedimentation; GMPCPP-MT for cryo-EM)
Assay: co-sedimentation; purified MTBDs (1-32 uM) mixed with 5 uM paclitaxel-stabilised porcine MTs; 100 mM PIPES pH 6.8, 50 mM NaCl, 2 mM MgCl2, 1 mM EGTA; 210,000 x g, 25 °C, 10 min; pellets on SDS-PAGE, densitometry, one-site curve fitting
Conditions: both partners purified

B1: MTBD-Low, MTBD(S3097C/V3222C) (domain or fragment)
chain: KCIQDIEPTILEAQRGVKNIKKQQLTEIRSMVNPPSGVKIVMEAVCAILGYQFSNWRDIQQFIRKDDFIHNIVHYDTTLHMKPQIRKYMEEEFLSDPNFTYETINRASKACGPLYQWVNAQINFSKCLENVDPLRQE
modifications: intramolecular disulfide bond between C3097 (CC1) and C3222 (CC2)
Kd: > 200 µM

Reference: publication PMC7042235, “Structural basis for two-way communication between dynein and microtubules” (Nature Communications, 2020)
